Measured values as given in article PMC6662615 (Biochemistry, 2019).

Target: the molecule itself
Assay: dynamic light scattering

B1: recombinant human αB-crystallin (natural protein, UniProt P02511 1-175, looked up)
chain: MDIAIHHPWIRRPFFPFHSPSRLFDQFFGEHLLESDLFPTSTSLSPFYLRPPSFLRAPSWFDTGLSEMRLEKDRFSVNLDVKHFSPEELKVKVLGDVIEVHGKHEERQDEHGFISREFHRKYRIPADVDPLTITSSLSSDGVLTVNGPRKQVSGPERTIPITREEKPAVTAAPKK
B1: binds.
